Test results reported in ChEMBL document CHEMBL1208712, “Synthesis and anti-HCV activity of 3',4'-oxetane nucleosides” (Bioorg Med Chem Lett, 2010).
Each block holds one compound with its values, some of them ahead of it. Activity calls are given as the source filed them. The rule behind the calls is not given here.

What was measured:
[1] = system: Nc1ccn([C@@H]2O[C@@]3(CO)CO[C@H]3[C@@H]2F)c(=O)n1; experiment: (§1) Ratio of Kcat/Km for human recombinant deoxycytidine kinase
[2] = system: Nc1ccn([C@@H]2O[C@@]3(CO)CO[C@H]3[C@H]2F)c(=O)n1; experiment: as §1
[3] = system: Nc1ccn([C@@H]2O[C@@]3(CO)CO[C@H]3C2(F)F)c(=O)n1; experiment: as §1
[4] = system: Nc1ccn([C@@H]2O[C@@]3(CO)CO[C@H]3[C@@H]2F)c(=O)n1; experiment: (§2) Activity at human recombinant deoxycytidine kinase expressed in HepG2 cells; type: cell-based
[5] = system: Nc1ccn([C@@H]2O[C@@]3(CO)CO[C@H]3[C@H]2F)c(=O)n1; experiment: as §2; type: cell-based
[6] = system: Nc1ccn([C@@H]2O[C@@]3(CO)CO[C@H]3C2(F)F)c(=O)n1; experiment: as §2; type: cell-based
[7] = molecular target: T1, UMP-CMP kinase (Homo sapiens) (UniProt P30085); experiment: Activity at human recombinant UMP-CMP kinase
T1 sequence (whole entry): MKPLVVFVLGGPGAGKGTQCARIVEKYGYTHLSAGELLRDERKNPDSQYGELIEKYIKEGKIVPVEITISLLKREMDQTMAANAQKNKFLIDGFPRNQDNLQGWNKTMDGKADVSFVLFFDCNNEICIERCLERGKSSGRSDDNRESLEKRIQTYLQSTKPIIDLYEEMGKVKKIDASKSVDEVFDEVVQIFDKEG

Deoxycytidine kinase (Homo sapiens), P27707, sequence (P27707 whole entry): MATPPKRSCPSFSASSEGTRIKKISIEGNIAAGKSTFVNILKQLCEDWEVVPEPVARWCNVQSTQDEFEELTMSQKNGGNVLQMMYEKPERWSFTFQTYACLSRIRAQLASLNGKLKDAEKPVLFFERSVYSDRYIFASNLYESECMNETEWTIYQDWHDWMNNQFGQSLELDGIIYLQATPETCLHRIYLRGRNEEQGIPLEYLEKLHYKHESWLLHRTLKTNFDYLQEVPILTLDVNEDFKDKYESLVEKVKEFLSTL

Compound: Deoxycytidine kinase (Homo sapiens), P27707
- kcat/Km (10'-3/microM/s) [1]: 1.5
- kcat/Km [2]: 3.5 ×10⁻⁴ /µM/s
- kcat/Km (10'-3/microM/s) [3]: 2.2
- Km [4]: 81.1 µM
- kcat [4]: 0.122 s⁻¹
- Km [5]: 61 µM
- kcat [5]: 0.0214 s⁻¹
- Km [6]: 27.6 µM
- kcat [6]: 0.0599 s⁻¹

- Activity [7]: inactive
Compound: Nc1ccn([C@@H]2O[C@@]3(CO)CO[C@H]3[C@H]2F)c(=O)n1

- Activity [7]: inactive
Compound: Nc1ccn([C@@H]2O[C@@]3(CO)CO[C@H]3[C@@H]2F)c(=O)n1

- Activity [7]: inactive
Compound: Nc1ccn([C@@H]2O[C@@]3(CO)CO[C@H]3C2(F)F)c(=O)n1
